Values belong to the molecule of their own block, whether it stands above or below them.
Legend:
CPN present in the paste = target: T1, CPN present in the paste (Homo sapiens, UniProt P15169); test: Effect of CP inhibitors on C-terminal lysine truncation in dissolved, ethanol-treated IV-1 paste (IEF); assay type: biochemical
T1 construct: Cohn IV-1 precipitate is usually derived after ethanol fractionation of plasma; from tissue; host or cells: Cohn IV-1 paste (ethanol precipitate of plasma)
T1 sequence (P15169 21-458): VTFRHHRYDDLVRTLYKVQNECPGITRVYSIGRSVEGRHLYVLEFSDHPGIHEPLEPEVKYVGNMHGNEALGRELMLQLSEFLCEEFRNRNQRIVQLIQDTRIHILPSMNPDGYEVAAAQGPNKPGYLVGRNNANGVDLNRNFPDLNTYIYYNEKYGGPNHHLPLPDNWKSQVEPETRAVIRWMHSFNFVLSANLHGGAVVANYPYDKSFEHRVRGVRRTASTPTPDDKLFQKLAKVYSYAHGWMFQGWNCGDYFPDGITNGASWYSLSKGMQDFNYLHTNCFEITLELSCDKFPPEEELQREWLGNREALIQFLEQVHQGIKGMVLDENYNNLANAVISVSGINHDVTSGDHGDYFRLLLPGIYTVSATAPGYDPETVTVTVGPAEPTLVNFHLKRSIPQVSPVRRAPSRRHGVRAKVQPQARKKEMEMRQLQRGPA
T1 sequence (P22792 22-545 partner): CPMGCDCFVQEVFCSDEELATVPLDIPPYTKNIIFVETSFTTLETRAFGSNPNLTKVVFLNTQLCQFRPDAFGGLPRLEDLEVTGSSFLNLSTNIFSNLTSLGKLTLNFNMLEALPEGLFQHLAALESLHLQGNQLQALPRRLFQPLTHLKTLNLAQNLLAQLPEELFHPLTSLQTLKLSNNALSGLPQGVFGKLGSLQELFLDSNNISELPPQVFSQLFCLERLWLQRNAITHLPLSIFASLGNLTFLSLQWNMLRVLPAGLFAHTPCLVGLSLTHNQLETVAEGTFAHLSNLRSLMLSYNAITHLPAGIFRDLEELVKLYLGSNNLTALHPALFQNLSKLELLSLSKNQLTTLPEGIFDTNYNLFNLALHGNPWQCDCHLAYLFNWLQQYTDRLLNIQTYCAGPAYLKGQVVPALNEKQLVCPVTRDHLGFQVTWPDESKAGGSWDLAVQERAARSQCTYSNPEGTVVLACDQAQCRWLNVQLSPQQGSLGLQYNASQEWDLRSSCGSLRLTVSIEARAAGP
Protocol: (§1) Cohn IV-1 paste was dissolved in 2.6 volumes of 10 mM Tris-buffer at pH 8.8 and incubated for 30 min at 22° C. The suspension was made 40% in ethanol (by addition of 2.4 volumes of ethanol), stirred for a further 60 min, diluted with the same Tris-buffer to 10% ethanol and extracted for a further 6 h.
The following inhibitors were added in parallel during extraction and dilution with Tris-buffer: 100 mM 6-aminocaproic acid, 10 μM or 1 nM 2-mercaptomethyl-3-guanidinoethylthiopropanoic acid (a more specific inhibitor of CPN). The samples were characterized by high resolution isoelectric focusing.
(§2) For high resolution isoelectric focusing a new hybrid IEF method using IPG-Immobiline gels (GE Healthcare Bio-Sciences, pI 4.2-4.9, Uppsala, Sweden) was developed which is similar to that described by Weidinger^54. Samples were diluted with water to 0.5 mg A1PI/mL and 5 mM DTE was added. Samples (20 μl) were applied close to the cathode on the pre-focused gel and focused for 150 min (5000 Vh). For paste extracts focusing time was extended to 420 min. Gels were stained with Coomassie Brilliant Blue G-250 (BioRad, Hercules, USA) as described by Neuhoff^55. Blotting and immunostaining were done with a rabbit anti-A1PI antibody (Rabbit Anti-Human Alpha-1-Antitrypsin, #A0012, DakoCytomation, Glostrup, Denmark).

CPN = target: T2, CPN (Homo sapiens, UniProt P15169); test: CPN-catalysed removal of C-terminal lysine from A1PI products, released Lys by HPLC; assay type: biochemical; design: purchased Elastin Company; settings: for Ethanol concentration at which linear increase of Lys removal starts: incubation with CPN, 10 min
T2 sequence (P15169 21-458): T1 sequence (P15169 21-458)
T2 sequence (P22792 22-545 partner): T1 sequence (P22792 22-545 partner)
Protocol: The cleaved C-terminal lysine of A1PI was determined using automated orthophtalicdialdehyd (OPA) pre-column derivatization and high-performance liquid chromatography. The derivatization reagent was prepared by dissolving 100 mg of OPA in 2.5 mL of methanol by short ultrasonication, adding 23 mL of deoxygenated sodium borate buffer (0.2 mol/L, pH 9.0), 100 μl of 2-mercaptoethanol and 100 μl of Brij 35 as described^53. The system used was an ASTED HPLC system (Gilson, Paris) with Shimadzu RF-A fluorescence detector and a C-18 Chromolith ODS 4.7*100 mm column. A mixture of 50 mM KH2PO4, acetonitrile and methanol (ratio 50:24:26) was used as mobile phase and ornithine was used as internal standard.
To 30 μl 0.5 mM A1PI (using ARALAST® (Alpha1-Proteinase Inhibitor (Human)) or PROLASTIN® (Alpha1-Proteinase Inhibitor (Human))) 10 μl water or ethanol (different concentrations) was added. Afterwards 10 μl CPN (500 U/L) was added and after a 10 minutes incubation interval the reaction was stopped by adding 50 μl internal standard in 0.25 M HCl. The cleaved lysine was quantified as described above.

[1] = HP-SEC aggregate content of A1PI products; assay type: physicochemical
Protocol: (§3) ARALAST® (Alpha1-Proteinase Inhibitor (Human)), Prolastin PROLASTIN® (Alpha1-Proteinase Inhibitor (Human)), and ZEMAIRA® (Alpha1-Proteinase Inhibitor (Human)) were analyzed by high-resolution IEF and high-performance size-exclusion chromatography (HP-SEC). Preparative separated isoforms from IEF were further purified by chromatography and subjected to mass spectrometry for sequence analyses, peptide mapping, and glycosylation analysis. Deamidation was quantified by enzymatic isoaspartate detection. Multiple sequence alignments and structural bioinformatics analyses were performed.

[2] = Percent C-terminal Lys truncated (des-Lys) A1PI in A1PI products; assay type: physicochemical, human; settings: commercial product
Protocol: as §3

A1PI [3] = test: Incubation of purified non-truncated A1PI with carboxypeptidases, analysis by IEF; assay type: biochemical, human; settings: for Lys truncation of A1PI by carboxypeptidase: A1PI in temporary contact with 40% ethanol, then diluted to 10% ethanol; for C-terminal lys removal from A1PI by carboxypeptidase: in the presence of only 10% ethanol
Protocol: A1PI solutions were incubated with different CPs. Temporary exposure to 40% ethanol was achieved by diluting the A1PI preparation (38 μM) with 96% ethanol. The precipitate formed was kept 30 min at −20° C. and a further 30 min at +4° C., before it was diluted with TRIS-HCl buffer (pH 8.8) to a final concentration of 10% ethanol. Concomitantly, CPs were added with the TRIS buffer and the reaction mixture containing 10 μM A1PI was then incubated at 37° C. for 60 min. Before IEF analysis dithioerythritol (DTE) was added to a final concentration of 5 mM. In addition, the incubation with CPs was done without ethanol or at 10% ethanol. Furthermore, we ran two concentration rows with either CPN (270-1 mU/ml) or CPM (250-10 mU/ml) after temporary exposure of A1PI to 40% ethanol (CPN units were tested against Hip-Arg).
as §2

A1PI [4] = test: C-terminal Lys truncation of A1PI in dissolved Cohn IV-1 paste (IEF); assay type: biochemical, human; settings: presence of only 10% ethanol; CPB added, CPN as present in the paste
Protocol: as §1
IV-1 paste was dissolved in 20.6 volumes of 10 mM Tris-buffer at pH 8.8 and incubated during 30 min at 22° C. The suspension was made 10% in ethanol (by addition of 2.4 volumes of ethanol) and stirred for a further 6 h at 22° C. and pH 8.8.
as §2

Inhibition of Lys truncation induced by the procedure 40=>10% EtOH (CPN present in the paste; dissolved IV-1 paste, pH 8.8, 6 h): could be inhibited
Inhibition of lysine removal from A1PI (CPN present in the paste; inhibitor at 100 mM): completely inhibited
Molecule: NCCCCCC(=O)O [6-amino caproic acid]

Ethanol concentration at which linear increase of Lys removal starts (CPN): 10 % ethanol
Molecule: ARALAST: Alpha1-Proteinase Inhibitor (Human), approved plasma-derived A1PI concentrate, made from Cohn IV-1+IV-4 paste

Lys removed by CPN (CPN; absence of ethanol): very small amounts
Ethanol concentration at which linear increase of Lys removal starts (CPN): 5 % ethanol
Molecule: PROLASTIN: Alpha1-Proteinase Inhibitor (Human), approved plasma-derived A1PI concentrate, purified from fraction IV-1
Aggregate content [1]: approximately 30%

Molecule: ZEMAIRA: Alpha1-Proteinase Inhibitor (Human), approved plasma-derived A1PI concentrate
Percent of A1PI C-terminal truncation as compared to total A1PI protein [2]: 6%

B1: CPM: carboxypeptidase M, EC 3.4.17.12, recombinant, expressed in P. pastoris (protein, UniProt P14384 18-423, looked up)
Carboxypeptidase M: LDFNYHRQEGMEAFLKTVAQNYSSVTHLHSIGKSVKGRNLWVLVVGRFPKEHRIGIPEFKYVANMHGDETVGRELLLHLIDYLVTSDGKDPEITNLINSTRIHIMPSMNPDGFEAVKKPDCYYSIGRENYNQYDLNRNFPDAFEYNNVSRQPETVAVMKWLKTETFVLSANLHGGALVASYPFDNGVQATGALYSRSLTPDDDVFQYLAHTYASRNPNMKKGDECKNKMNFPNGVTNGYSWYPLQGGMQDYNYIWAQCFEITLELSCCKYPREEKLPSFWNNNKASLIEYIKQVHLGVKGQVFDQNGNPLPNVIVEVQDRKHICPYRTNKYGEYYLLLLPGSYIINVTVPGHDPHITKVIIPEKSQNFSALKKDILLPFQGQLDSIPVSNPSCPMIPLYRNLPDHS
Carboxypeptidase concentration inducing 50% C-terminal A1PI truncation (A1PI [3]; 40% ethanol-pretreated purified A1PI): 50 mU/ml
Lys truncation of A1PI by carboxypeptidase (A1PI [3]): almost complete

B2: CPN: carboxypeptidase N, EC 3.4.17.3, basic carboxypeptidase of plasma (protein, UniProt P15169 21-458; P22792 22-545, looked up)
Carboxypeptidase N catalytic …: T1 sequence (P15169 21-458)
Carboxypeptidase N subunit 2: T1 sequence (P22792 22-545 partner)
C-terminal lysines cleaved from purified uncleaved A1PI (A1PI [3]; 50 mU CPN/ml): 10-20%
Lys truncation of A1PI by carboxypeptidase (A1PI [3]): ~60%
C-terminal lys removal from A1PI by carboxypeptidase (A1PI [3]): slightly
Lys truncation of A1PI in dissolved IV-1 paste by carboxypeptidase (A1PI [4]): did not remove the C-terminal lysine

B3: CPB: carboxypeptidase B, EC 3.4.17.2, small 35 kDa carboxypeptidase from pancreas (protein, UniProt P15086 111-417, looked up)
Carboxypeptidase B: ATGHSYEKYNKWETIEAWTQQVATENPALISRSVIGTTFEGRAIYLLKVGKAGQNKPAIFMDCGFHAREWISPAFCQWFVREAVRTYGREIQVTELLDKLDFYVLPVLNIDGYIYTWTKSRFWRKTRSTHTGSSCIGTDPNRNFDAGWCEIGASRNPCDETYCGPAAESEKETKALADFIRNKLSSIKAYLTIHSYSQMMIYPYSYAYKLGENNAELNALAKATVKELASLHGTKYTYGPGATTIYPAAGGSDDWAYDQGIRYSFTFELRDTGRYGFLLPESQIRATCEETFLAIKYVASYVLEHLY
Lys truncation of A1PI by carboxypeptidase (A1PI [3]): almost complete
C-terminal lys removal from A1PI by carboxypeptidase (A1PI [3]): completely truncate
Lys truncation of A1PI in dissolved IV-1 paste by carboxypeptidase (A1PI [4]): almost complete
